Data on two substances can be found in US5591825A, “Interleukin 4 signal transducers” (Tularik, Inc., priority 1994, dated 1997).

In the test the target is T1, IL-4 Stat (Homo sapiens, UniProt P42226).
T1 construct: Samples of nuclear extract prepared from IL-4 induced Thp-1 cells were incubated with individual phosphopeptides; endogenous in cells; host or cells: Thp-1 cells, IL-4 induced, nuclear extract
T1 sequence (P42226 1-847): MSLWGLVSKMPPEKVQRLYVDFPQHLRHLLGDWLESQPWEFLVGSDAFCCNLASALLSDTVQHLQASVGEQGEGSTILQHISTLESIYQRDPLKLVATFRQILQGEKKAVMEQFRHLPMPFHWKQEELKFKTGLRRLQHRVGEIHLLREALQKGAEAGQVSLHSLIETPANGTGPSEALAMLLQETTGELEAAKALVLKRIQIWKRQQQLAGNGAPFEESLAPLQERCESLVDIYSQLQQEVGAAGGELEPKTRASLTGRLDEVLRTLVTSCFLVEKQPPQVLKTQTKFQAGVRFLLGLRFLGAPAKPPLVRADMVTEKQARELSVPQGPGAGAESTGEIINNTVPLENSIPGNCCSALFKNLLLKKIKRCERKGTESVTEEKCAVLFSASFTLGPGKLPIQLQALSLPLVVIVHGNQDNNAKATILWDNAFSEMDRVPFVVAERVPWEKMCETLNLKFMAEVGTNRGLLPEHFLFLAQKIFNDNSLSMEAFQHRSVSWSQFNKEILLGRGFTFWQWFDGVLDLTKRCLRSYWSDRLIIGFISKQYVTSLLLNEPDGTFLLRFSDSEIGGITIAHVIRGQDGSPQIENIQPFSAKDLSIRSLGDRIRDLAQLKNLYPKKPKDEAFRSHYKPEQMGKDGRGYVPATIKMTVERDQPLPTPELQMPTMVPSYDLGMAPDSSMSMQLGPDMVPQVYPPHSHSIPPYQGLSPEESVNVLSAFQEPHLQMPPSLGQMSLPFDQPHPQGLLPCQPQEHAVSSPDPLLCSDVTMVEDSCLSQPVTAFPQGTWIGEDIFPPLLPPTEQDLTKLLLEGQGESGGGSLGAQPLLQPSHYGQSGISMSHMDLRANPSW
Put plainly: Gel mobility shift assay of IL-4 Stat DNA binding in nuclear extract of IL-4 induced Thp-1 cells. Type of test: biochemical. To be noted: nuclear extract from IL-4 induced Thp-1 cells.

Non-standard residues stand in square brackets, D forms with d. pY = N[C@@H](Cc1ccc(OP(=O)(O)O)cc1)C(=O)O

For “NH2-ASS GEE GYKP FQD LI(SEQ ID NO:11)-COOH (H-ASSGEEG[pY]KPFQDLI-OH; SMILES CC[C@H](C)[C@H](NC(=O)[C@H](CC(C)C)NC(=O)[C@H](CC(=O)O)NC(=O)[C@H](CCC(N)=O)NC(=O)[C@H](Cc1ccccc1)NC(=O)[C@@H]1CCCN1C(=O)[C@H](CCCCN)NC(=O)[C@H](Cc1ccc(OP(=O)(O)O)cc1)NC(=O)CNC(=O)[C@H](CCC(=O)O)NC(=O)[C@H](CCC(=O)O)NC(=O)CNC(=O)[C@H](CO)NC(=O)[C@H](CO)NC(=O)[C@H](C)N)C(=O)O)”, the “inhibitory effect on DNA binding by activated IL-4 Stat” value is listed as “inhibitory”. For “NH2-GPP GEA GYKA FSS LL(SEQ ID NO:10)-COOH (H-GPPGEAG[pY]KAFSSLL-OH; SMILES CC(C)C[C@H](NC(=O)[C@H](CC(C)C)NC(=O)[C@H](CO)NC(=O)[C@H](CO)NC(=O)[C@H](Cc1ccccc1)NC(=O)[C@H](C)NC(=O)[C@H](CCCCN)NC(=O)[C@H](Cc1ccc(OP(=O)(O)O)cc1)NC(=O)CNC(=O)[C@H](C)NC(=O)[C@H](CCC(=O)O)NC(=O)CNC(=O)[C@@H]1CCCN1C(=O)[C@@H]1CCCN1C(=O)CN)C(=O)O)” the value was “inhibitory”.
